Laboratory results taken from patent US11702475B2, “Cysteine engineered fibronectin type III domain binding molecules” (Janssen Biotech, Inc., priority 2013, dated 2023).

Tests used:
[1] = molecular target: T1, EGFR on A431 cells (EGF binding) (Homo sapiens, UniProt P00533); assay: A431 cell EGF competition assay; conditions: biotinylated EGF 30 ng/mL
T1 construct: A431 cells (American Type Culture Collection, cat. #CRL-1555) over-express EGFR; host or cells: A431
Protocol: To better characterize the mechanism of EGFR binding, the ability of various identified FN3 domain clones to bind EGFR in an EGF-competitive manner was measured using A431 cells and run in parallel with the A431 binding assay screen. A431 cells were plated at 5,000/well in opaque black 96-well plates and allowed to attach overnight at 37° C., in a humidified 5% CO2 atmosphere. Cells were incubated with 50 μL/well of 1:1,000 diluted bacterial lysate for 1 hour at room temperature in triplicate plates. Biotinylated EGF (Invitrogen, cat. #E-3477) was added to each well to give a final concentration of 30 ng/mL and incubated for 10 minutes at room temperature. Cells were washed 3 times with 150 μL/well of FACS stain buffer. […] Cells were washed 3 times with 150 μL/well of FACS stain buffer, after which wells were filled with 100 μL of FACS stain buffer and read for fluorescence at 600 nm using an Acumen eX3 reader.
A431 cells were plated at 5,000/well in opaque black 96-well plates and allowed to attach overnight at 37° C., in a humidified 5% CO2 atmosphere. […] Cells were washed 3 times with 150 μL/well of FACS stain buffer, after which wells were filled with 100 μL of FACS stain buffer and read for fluorescence at 600 nm using an Acumen eX3 reader. […]

NCI-H292 cells = assay: NCI-H292 growth assay; type: cell-based, human; conditions: 120 hours, CellTiter-Glo
Protocol: Inhibition of EGFR-dependent cell growth was assessed by measuring viability of the EGFR over-expressing human tumor cell lines, NCI-H292 and NCI-H322 (American Type Culture Collection, cat. #CRL-1848 & #CRL-5806, respectively), following exposure to EGFR-binding FN3 domains. Cells were plated at 500 cells/well (NCI-H292) or 1,000 cells/well (NCI-H322) in opaque white 96-well tissue culture-treated plates (Nunc) in 1004/well of RPMI medium (Gibco) containing GlutaMAX™ and 10 mM HEPES, supplemented with 10% heat inactivated fetal bovine serum (Gibco) and 1% penicillin/streptomycin (Gibco), and allowed to attach overnight at 37° C. in a humidified 5% CO2 atmosphere. Cells were treated by addition of 54/well of phosphate-buffered saline (PBS) containing a concentration range of EGFR-binding FN3 domains. […] Viable cells were detected by addition of 754/well of CellTiter-Glo® reagent (Promega), followed by mixing on a plate shaker for 2 minutes, and incubation in the dark at room temperature for a further 10 minutes. Plates were read on a SpectraMax M5 plate reader (Molecular Devices) set to luminescence mode, with a read time of 0.5 seconds/well against a blank of medium only. […] IC50 values were determined by fitting data to the equation for a sigmoidal dose response with variable slope using GraphPad Prism 4 (GraphPad Software).

B1: P54AR4-47: EGFR-binding FN3 domain, SEQ ID NO: 20 (protein)
chain: LPAPKNLVVSEVTEDSLRLSWGYNGDHFDSFLIQYQESEKVGEAINLTVPGSERSYDLTGLKPGTEYTVSIYGVHNVYKDTNMRGLPLSAEFTT
modifications: EGFR binding FN3 domain
- IC50 [1]: 7.1 nM
- IC50 (NCI-H292 cells): 44 nM
